# Literature values, collected in patent publication US12258594B2, “Cas proteins with reduced immunogenicity and methods of screening thereof” (THE BROAD INSTITUTE, INC., priority 2018, dated 2025).
# Tested on: target RNA
# Settings: LbuCas13a alanine mutants
row,Molecule,crRNA-guided target RNA cleavage activity
1,"Lys558: LbuCas13a with alanine substituted for Lys558 (protein, UniProt C7NBY4 1-1159, looked up, variant K558A) CRISPR-associated …: MKVTKVGGISHKKYTSEGRLVKSESEENRTDERLSALLNMRLDMYIKNPSSTETKENQKRIGKLKKFFSNKMVYLKDNTLSLKNGKKENIDREYSETDILESDVRDKKNFAVLKKIYLNENVNSEELEVFRNDIKKKLNKINSLKYSFEKNKANYQKINENNIEKVEGKSKRNIIYDYYRESAKRDAYVSNVKEAFDKLYKEEDIAKLVLEIENLTKLEKYKIREFYHEIIGRKNDKENFAKIIYEEIQNVNNMKELIEKVPDMSELKKSQVFYKYYLDKEELNDKNIKYAFCHFVEIEMSQLLKNYVYKRLSNISNDKIKRIFEYQNLKKLIENKLLNKLDTYVRNCGKYNYYLQDGEIATSDFIARNRQNEAFLRNIIGVSSVAYFSLRNILETENENDITGRMRGKTVKNNKGEEKYVSGEVDKIYNENKKNEVKENLKMFYSYDFNMDNKNEIEDFFANIDEAISSIRHGIVHFNLELEGKDIFAFKNIAPSEISKKMFQNEINEKKLKLKIFRQLNSANVFRYLEKYKILNYLKRTRFEFVNKNIPFVPSFTALYSRIDDLKNSLGIYWKTPKTNDDNKTKEIIDAQIYLLKNIYYGEFLNYFMSNNGNFFEISKEIIELNKNDKRNLKTGFYKLQKFEDIQEKIPKEYLANIQSLYMINAGNQDEEEKDTYIDFIQKIFLKGFMTYLANNGRLSLIYIGSDEETNTSLAEKKQEFDKFLKKYEQNNNIKIPYEINEFLREIKLGNILKYTERLNMFYLILKLLNHKELTNLKGSLEKYQSANKEEAFSDQLELINLLNLDNNRVTEDFELEADEIGKFLDFNGNKVKDNKELKKFDTNKIYFDGENIIKHRAFYNIKKYGMLNLLEKIADKAGYKISIEELKKYSNKKNEIEKNHKMQENLHRKYARPRKDEKFTDEDYESYKQAIENIEEYTHLKNKVEFNELNLLQGLLLRILHRLVGYTSIWERDLRFRLKGEFPENQYIEEIFNFENKKNVKYKGGQIVEKYIKFYKELHQNDEVKINKYSSANIKVLKQEKKDLYIRNYIAHFNYIPHAEISLLEVLENLRKLLSYDRKLKNAVMKSVVDILKEYGFVATFKIGADKKIGIQTLESEKIVHLKNLKKKKLMTDRNSEELCKLVKIMFEYKMEEKKSEN",dramatically reduced crRNA-guided RNA cleavage
2,"Tyr601Ala: Tyr601Ala mutant of LbuCas13a (protein, UniProt C7NBY4 1-1159, looked up, variant Y601A) CRISPR-associated …: MKVTKVGGISHKKYTSEGRLVKSESEENRTDERLSALLNMRLDMYIKNPSSTETKENQKRIGKLKKFFSNKMVYLKDNTLSLKNGKKENIDREYSETDILESDVRDKKNFAVLKKIYLNENVNSEELEVFRNDIKKKLNKINSLKYSFEKNKANYQKINENNIEKVEGKSKRNIIYDYYRESAKRDAYVSNVKEAFDKLYKEEDIAKLVLEIENLTKLEKYKIREFYHEIIGRKNDKENFAKIIYEEIQNVNNMKELIEKVPDMSELKKSQVFYKYYLDKEELNDKNIKYAFCHFVEIEMSQLLKNYVYKRLSNISNDKIKRIFEYQNLKKLIENKLLNKLDTYVRNCGKYNYYLQDGEIATSDFIARNRQNEAFLRNIIGVSSVAYFSLRNILETENENDITGRMRGKTVKNNKGEEKYVSGEVDKIYNENKKNEVKENLKMFYSYDFNMDNKNEIEDFFANIDEAISSIRHGIVHFNLELEGKDIFAFKNIAPSEISKKMFQNEINEKKLKLKIFRQLNSANVFRYLEKYKILNYLKRTRFEFVNKNIPFVPSFTKLYSRIDDLKNSLGIYWKTPKTNDDNKTKEIIDAQIYLLKNIYAGEFLNYFMSNNGNFFEISKEIIELNKNDKRNLKTGFYKLQKFEDIQEKIPKEYLANIQSLYMINAGNQDEEEKDTYIDFIQKIFLKGFMTYLANNGRLSLIYIGSDEETNTSLAEKKQEFDKFLKKYEQNNNIKIPYEINEFLREIKLGNILKYTERLNMFYLILKLLNHKELTNLKGSLEKYQSANKEEAFSDQLELINLLNLDNNRVTEDFELEADEIGKFLDFNGNKVKDNKELKKFDTNKIYFDGENIIKHRAFYNIKKYGMLNLLEKIADKAGYKISIEELKKYSNKKNEIEKNHKMQENLHRKYARPRKDEKFTDEDYESYKQAIENIEEYTHLKNKVEFNELNLLQGLLLRILHRLVGYTSIWERDLRFRLKGEFPENQYIEEIFNFENKKNVKYKGGQIVEKYIKFYKELHQNDEVKINKYSSANIKVLKQEKKDLYIRNYIAHFNYIPHAEISLLEVLENLRKLLSYDRKLKNAVMKSVVDILKEYGFVATFKIGADKKIGIQTLESEKIVHLKNLKKKKLMTDRNSEELCKLVKIMFEYKMEEKKSEN",reduced target RNA cleavage activity
3,"Arg809Ala: Arg809Ala mutant of LbuCas13a (protein, UniProt C7NBY4 1-1159, looked up, variant R809A) CRISPR-associated …: MKVTKVGGISHKKYTSEGRLVKSESEENRTDERLSALLNMRLDMYIKNPSSTETKENQKRIGKLKKFFSNKMVYLKDNTLSLKNGKKENIDREYSETDILESDVRDKKNFAVLKKIYLNENVNSEELEVFRNDIKKKLNKINSLKYSFEKNKANYQKINENNIEKVEGKSKRNIIYDYYRESAKRDAYVSNVKEAFDKLYKEEDIAKLVLEIENLTKLEKYKIREFYHEIIGRKNDKENFAKIIYEEIQNVNNMKELIEKVPDMSELKKSQVFYKYYLDKEELNDKNIKYAFCHFVEIEMSQLLKNYVYKRLSNISNDKIKRIFEYQNLKKLIENKLLNKLDTYVRNCGKYNYYLQDGEIATSDFIARNRQNEAFLRNIIGVSSVAYFSLRNILETENENDITGRMRGKTVKNNKGEEKYVSGEVDKIYNENKKNEVKENLKMFYSYDFNMDNKNEIEDFFANIDEAISSIRHGIVHFNLELEGKDIFAFKNIAPSEISKKMFQNEINEKKLKLKIFRQLNSANVFRYLEKYKILNYLKRTRFEFVNKNIPFVPSFTKLYSRIDDLKNSLGIYWKTPKTNDDNKTKEIIDAQIYLLKNIYYGEFLNYFMSNNGNFFEISKEIIELNKNDKRNLKTGFYKLQKFEDIQEKIPKEYLANIQSLYMINAGNQDEEEKDTYIDFIQKIFLKGFMTYLANNGRLSLIYIGSDEETNTSLAEKKQEFDKFLKKYEQNNNIKIPYEINEFLREIKLGNILKYTERLNMFYLILKLLNHKELTNLKGSLEKYQSANKEEAFSDQLELINLLNLDNNAVTEDFELEADEIGKFLDFNGNKVKDNKELKKFDTNKIYFDGENIIKHRAFYNIKKYGMLNLLEKIADKAGYKISIEELKKYSNKKNEIEKNHKMQENLHRKYARPRKDEKFTDEDYESYKQAIENIEEYTHLKNKVEFNELNLLQGLLLRILHRLVGYTSIWERDLRFRLKGEFPENQYIEEIFNFENKKNVKYKGGQIVEKYIKFYKELHQNDEVKINKYSSANIKVLKQEKKDLYIRNYIAHFNYIPHAEISLLEVLENLRKLLSYDRKLKNAVMKSVVDILKEYGFVATFKIGADKKIGIQTLESEKIVHLKNLKKKKLMTDRNSEELCKLVKIMFEYKMEEKKSEN",reduced target RNA cleavage activity
4,"Lys942Ala: Lys942Ala mutant of LbuCas13a (protein, UniProt C7NBY4 1-1159, looked up, variant K942A) CRISPR-associated …: MKVTKVGGISHKKYTSEGRLVKSESEENRTDERLSALLNMRLDMYIKNPSSTETKENQKRIGKLKKFFSNKMVYLKDNTLSLKNGKKENIDREYSETDILESDVRDKKNFAVLKKIYLNENVNSEELEVFRNDIKKKLNKINSLKYSFEKNKANYQKINENNIEKVEGKSKRNIIYDYYRESAKRDAYVSNVKEAFDKLYKEEDIAKLVLEIENLTKLEKYKIREFYHEIIGRKNDKENFAKIIYEEIQNVNNMKELIEKVPDMSELKKSQVFYKYYLDKEELNDKNIKYAFCHFVEIEMSQLLKNYVYKRLSNISNDKIKRIFEYQNLKKLIENKLLNKLDTYVRNCGKYNYYLQDGEIATSDFIARNRQNEAFLRNIIGVSSVAYFSLRNILETENENDITGRMRGKTVKNNKGEEKYVSGEVDKIYNENKKNEVKENLKMFYSYDFNMDNKNEIEDFFANIDEAISSIRHGIVHFNLELEGKDIFAFKNIAPSEISKKMFQNEINEKKLKLKIFRQLNSANVFRYLEKYKILNYLKRTRFEFVNKNIPFVPSFTKLYSRIDDLKNSLGIYWKTPKTNDDNKTKEIIDAQIYLLKNIYYGEFLNYFMSNNGNFFEISKEIIELNKNDKRNLKTGFYKLQKFEDIQEKIPKEYLANIQSLYMINAGNQDEEEKDTYIDFIQKIFLKGFMTYLANNGRLSLIYIGSDEETNTSLAEKKQEFDKFLKKYEQNNNIKIPYEINEFLREIKLGNILKYTERLNMFYLILKLLNHKELTNLKGSLEKYQSANKEEAFSDQLELINLLNLDNNRVTEDFELEADEIGKFLDFNGNKVKDNKELKKFDTNKIYFDGENIIKHRAFYNIKKYGMLNLLEKIADKAGYKISIEELKKYSNKKNEIEKNHKMQENLHRKYARPRKDEKFTDEDYESYKQAIENIEEYTHLANKVEFNELNLLQGLLLRILHRLVGYTSIWERDLRFRLKGEFPENQYIEEIFNFENKKNVKYKGGQIVEKYIKFYKELHQNDEVKINKYSSANIKVLKQEKKDLYIRNYIAHFNYIPHAEISLLEVLENLRKLLSYDRKLKNAVMKSVVDILKEYGFVATFKIGADKKIGIQTLESEKIVHLKNLKKKKLMTDRNSEELCKLVKIMFEYKMEEKKSEN",reduced target RNA cleavage activity
5,"Tyr938Ala: Tyr938Ala mutant of LbuCas13a (protein, UniProt C7NBY4 1-1159, looked up, variant Y938A) CRISPR-associated …: MKVTKVGGISHKKYTSEGRLVKSESEENRTDERLSALLNMRLDMYIKNPSSTETKENQKRIGKLKKFFSNKMVYLKDNTLSLKNGKKENIDREYSETDILESDVRDKKNFAVLKKIYLNENVNSEELEVFRNDIKKKLNKINSLKYSFEKNKANYQKINENNIEKVEGKSKRNIIYDYYRESAKRDAYVSNVKEAFDKLYKEEDIAKLVLEIENLTKLEKYKIREFYHEIIGRKNDKENFAKIIYEEIQNVNNMKELIEKVPDMSELKKSQVFYKYYLDKEELNDKNIKYAFCHFVEIEMSQLLKNYVYKRLSNISNDKIKRIFEYQNLKKLIENKLLNKLDTYVRNCGKYNYYLQDGEIATSDFIARNRQNEAFLRNIIGVSSVAYFSLRNILETENENDITGRMRGKTVKNNKGEEKYVSGEVDKIYNENKKNEVKENLKMFYSYDFNMDNKNEIEDFFANIDEAISSIRHGIVHFNLELEGKDIFAFKNIAPSEISKKMFQNEINEKKLKLKIFRQLNSANVFRYLEKYKILNYLKRTRFEFVNKNIPFVPSFTKLYSRIDDLKNSLGIYWKTPKTNDDNKTKEIIDAQIYLLKNIYYGEFLNYFMSNNGNFFEISKEIIELNKNDKRNLKTGFYKLQKFEDIQEKIPKEYLANIQSLYMINAGNQDEEEKDTYIDFIQKIFLKGFMTYLANNGRLSLIYIGSDEETNTSLAEKKQEFDKFLKKYEQNNNIKIPYEINEFLREIKLGNILKYTERLNMFYLILKLLNHKELTNLKGSLEKYQSANKEEAFSDQLELINLLNLDNNRVTEDFELEADEIGKFLDFNGNKVKDNKELKKFDTNKIYFDGENIIKHRAFYNIKKYGMLNLLEKIADKAGYKISIEELKKYSNKKNEIEKNHKMQENLHRKYARPRKDEKFTDEDYESYKQAIENIEEATHLKNKVEFNELNLLQGLLLRILHRLVGYTSIWERDLRFRLKGEFPENQYIEEIFNFENKKNVKYKGGQIVEKYIKFYKELHQNDEVKINKYSSANIKVLKQEKKDLYIRNYIAHFNYIPHAEISLLEVLENLRKLLSYDRKLKNAVMKSVVDILKEYGFVATFKIGADKKIGIQTLESEKIVHLKNLKKKKLMTDRNSEELCKLVKIMFEYKMEEKKSEN",reduced target RNA cleavage activity
